Reference: publication PMC3115021, “Dynamics of Cdk1 Substrate Specificity during the Cell Cycle” (Molecular Cell, 2011)

B1: CDH1: protein purified using the baculovirus system, tested as Cdk1 substrate (protein, UniProt P53197 1-566, looked up)
APC/C activator protein CDH1: MSTNLNPFMNNTPSSSPLKGSESKRVSKRPISSSSSASLLSSPSRRSRPSTVYGDRYIPSRTDIDFNSIVSISSMASVPALNPSSTEDQVEYQKERQAHETYNTLLKNELFGEMLSKDTVGSESSIDRIKNTRPSTRGNVHAENTTRHGYELERVSTPPPEAAGLEEFSPHSTPVTPRRLFTSQQDEITRPSSNSVRGASLLTYQQRKGRRLSAASLLQSQFFDSMSPVRPDSKQLLLSPGKQFRQIAKVPYRVLDAPSLADDFYYSLIDWSSTDVLAVALGKSIFLTDNNTGDVVHLCDTENEYTSLSWIGAGSHLAVGQANGLVEIYDVMKRKCIRTLSGHIDRVACLSWNNHVLTSGSRDHRILHRDVRMPDPFFETIESHTQEVCGLKWNVADNKLASGGNDNVVHVYEGTSKSPILTFDEHKAAVKAMAWSPHKRGVLATGGGTADRRLKIWNVNTSIKMSDIDSGSQICNMVWSKNTNELVTSHGYSKYNLTLWDCNSMDPIAILKGHSFRVLHLTLSNDGTTVVSGAGDETLRYWKLFDKPKAKVQPNSLIFDAFNQIR
B2: CDC6: replication factor and pre-RC component, tested as Cdk1 substrate (protein, UniProt P09119 1-513, looked up)
Cell division control protein …: MSAIPITPTKRIRRNLFDDAPATPPRPLKRKKLQFTDVTPESSPEKLQFGSQSIFLRTKALLQKSSELVNLNSSDGALPARTAEYEQVMNFLAKAISEHRSDSLYITGPPGTGKTAQLDMIIRQKFQSLPLSLSTPRSKDVLRHTNPNLQNLSWFELPDGRLESVAVTSINCISLGEPSSIFQKIFDSFQDLNGPTLQIKNMQHLQKFLEPYHKKTTFVVVLDEMDRLLHANTSETQSVRTILELFLLAKLPTVSFVLIGMANSLDMKDRFLSRLNLDRGLLPQTIVFQPYTAEQMYEIVIQKMSSLPTIIFQPMAIKFAAKKCAGNTGDLRKLFDVLRGSIEIYELEKRFLLSPTRGSLNSAQVPLTPTTSPVKKSYPEPQGKIGLNYIAKVFSKFVNNNSTRTRIAKLNIQQKLILCTIIQSLKLNSDATIDESFDHYIKAITKTDTLAPLQRNEFLEICTILETCGLVSIKKTKCKGKTKRFVDKIDVDLDMREFYDEMTKISILKPFLH
B3: EXO84: purified yeast protein tested as Cdk1 substrate (protein, UniProt P38261 1-753, looked up)
Exocyst complex component …: MVEFSLKKARNNWKHVKKSASSPAKQKTPPSPAKPKQKTKKNPYSDLKDPATSYTLPTINARERSRVATSMQRRLSIHNTNYAPPTLDYSMPLPDMPNMIVPNDNVDSSHNNSSFTTENESVSSKGPSNSLNLSTADLSLNDSSYNKVPARSAMRNTVNPSGSNDPFNNSTSLRKMLANPHFNAKDFVHDKLGNASAITIDKFTSNLTDLSIQVQEEVKLNINKSYNEIMTVNNDLNVAMLELKRVRANINDLNEVLDQCTKIAEKRLQLQDQIDQERQGNFNNVESHSNSPALLPPLKAGQNGNLMRRDRSSVLILEKFWDTELDQLFKNVEGAQKFINSTKGRHILMNSANWMELNTTTGKPLQMVQIFILNDLVLIADKSRDKQNDFIVSQCYPLKDVTVTQEEFSTKRLLFKFSNSNSSLYECRDADECSRLLDVIRKAKDDLCDIFHVEEENSKRIRESFRYLQSTQQTPGRENNRSPNKNKRRSMGGSITPGRNVTGAMDQYLLQNLTLSMHSRPRSRDMSSTAQRLKFLDEGVEEIDIELARLRFESAVETLLDIESQLEDLSERISDEELMLLNLISLKIEQRREAISSKLSQSILSSNEIVHLKSGTENMIKLGLPEQALDLFLQNRSNFIQDLILQIGSVDNPTNYLTQLAVIRFQTIKKTVEDFQDIFKELGAKISSILVDWCSDEVDNHFKLIDKQLLNDEMLSPGSIKSSRKQIDGLKAVGLDFVYKLDEFIKKNSDKIR
B4: FIN1: spindle-stabilizing protein, tested as Cdk1 substrate (protein, UniProt Q03898 1-291, looked up)
Filament protein FIN1: MSNKSNRRSLRDIGNTIGRNNIPSDKDNVFVRLSMSPLRTTSQKEFLKPPMRISPNKTDGMKHSIQVTPRRIMSPECLKGYVSKETQSLDRPQFKNSNKNVKIQNSDHITNIIFPTSPTKLTFSNENKIGGDGSLTRIRARFKNGLMSPERIQQQQQQHILPSDAKSNTDLCSNTELKDAPFENDLPRAKLKGKNLLVELKKEEEDVGNGIESLTKSNTKLNSMLANEGKIHKASFQKSVKFKLPDNIVTEETVELKEIKDLLLQMLRRQREIESRLSNIELQLTEIPKHK
B5: FAR1: Cdk1 inhibitor Far1, tested as Cdk1 substrate (protein, UniProt P21268 1-830, looked up)
Cyclin-dependent kinase …: MKTPTRVSFEKKIHTPPSGDRDAERSPPKKFLRGLSGKVFRKTPEFKKQQMPTFGYIEESQFTPNLGLMMSKRGNIPKPLNLSKPISPPPSLKKTAGSVASGFSKTGQLSALQSPVNITSSNKYNIKATNLTTSLLRESISDSTTMCDTLSDINLTVMDEDYRIDGDSYYEEDSPTFMISLERNIKKCNSQFSPKRYIGEKCLICEESISSTFTGEKVVESTCSHTSHYNCYLMLFETLYFQGKFPECKICGEVSKPKDKDIVPEMVSKLLTGAGAHDDGPSSNMQQQWIDLKTARSFTGEFPQFTPQEQLIRTADISCDGFRTPRLSNSNQFEAVSYLDSPFLNSPFVNKMATTDPFDLSDDEKLDCDDEIDESAAEVWFSKTGGEHVMVSVKFQEMRTSDDLGVLQDVNHVDHEELEEREKEWKKKIDQYIETNVDKDSEFGSLILFDKLMYSDDGEQWVDNNLVILFSKFLVLFDFEEMKILGKIPRDQFYQVIKFNEDVLLCSLKSTNIPEIYLRFNENCEKWLLPKWKYCLENSSLETLPLSEIVSTVKELSHVNIIGALGAPPDVISAQSHDSRLPWKRLHSDTPLKLIVCLNLSHADGELYRKRVLKSVHQILDGLNTDDLLGIVVVGRDGSGVVGPFGTFIGMINKNWDGWTTFLDNLEVVNPNVFRDEKQQYKVTLQTCERLASTSAYVDTDDHIATGYAKQILVLNGSDVVDIEHDQKLKKAFDQLSYHWRYEISQRRMTPLNASIKQFLEELHTKRYLDVTLRLPQATFEQVYLGDMAAGEQKTRLIMDEHPHSSLIEIEYFDLVKQQRIHQTLEVPNL

The molecules below were run against T1, Clb5hpm-Cdk1 (Saccharomyces cerevisiae, UniProt P00546) (assay: Quantitative phosphorylation assay of T33-Sic1ΔC constructs and recombinant substrates). Settings: Table S2; purified protein substrate; relative values, not divided by [S].
T1 construct: made in house; host or cells: S. cerevisiae strain DOM0963 (gal-CLB5hpm-TAP, sic1 deleted); Cks1 from bacteria
Type: biochemical
Summary of the method: (§1)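 Yeast cyclin-Cdk1 complexes (1–10 nM, TAP-purified) phosphorylated 6His-T33-Sic1ΔC (other S/T-P sites mutated to Ala-Ala) or recombinant substrates at 0.5–2 μM, below KM, with 32P-γ-ATP. Initial velocities (≤10% turnover) from two or more time points, SDS-PAGE stopped; relative kcat/KM from v0 ratios.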

T1 sequence (P00546 2-298 limits assumed): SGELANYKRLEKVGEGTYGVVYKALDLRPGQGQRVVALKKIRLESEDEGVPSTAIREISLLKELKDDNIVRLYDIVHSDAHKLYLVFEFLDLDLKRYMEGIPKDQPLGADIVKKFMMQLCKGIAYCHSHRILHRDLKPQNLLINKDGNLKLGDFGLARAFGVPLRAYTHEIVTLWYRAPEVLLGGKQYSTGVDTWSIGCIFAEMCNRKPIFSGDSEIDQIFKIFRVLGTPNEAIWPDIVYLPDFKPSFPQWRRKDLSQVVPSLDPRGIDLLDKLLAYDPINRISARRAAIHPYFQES

Molecule	kcat/KM, Clb5hpm [relative units]
B1	0.006
B2	0.138
B3	0.006
B4	3.651
B5	0.003

What follows are molecules tested against T2, Clb3hpm-Cdk1 (Saccharomyces cerevisiae, UniProt P00546+P24870) in the same assay as above. Settings: Table S2; purified protein substrate; relative values, not divided by [S].
T2 construct: made in house; host or cells: S. cerevisiae strain MK0168 (gal-CLB3hpm-TAP, sic1 deleted); Cks1 from bacteria
Type: biochemical
Summary of the method: as §1

Molecule	kcat/KM, Clb3hpm [relative units]
B1	0.008
B2	0.350
B3	0.014
B4	7.488
B5	0.008

The molecules below were run against T3, Clb2hpm-Cdk1 (Saccharomyces cerevisiae, UniProt P00546) in the same assay as above. Settings: Table S2; purified protein substrate; relative values, not divided by [S].
T3 construct: made in house; host or cells: S. cerevisiae strain DOM0964 (gal-CLB2hpm-TAP, sic1 deleted); Cks1 from bacteria
Type: biochemical
Summary of the method: as §1

T3 sequence (P00546 2-298 limits assumed): as above

Molecule	kcat/KM, Clb2hpm [relative units]
B1	0.023
B2	1.688
B3	0.062
B4	14.08
B5	0.033

The molecules below were run against T4, Clb5-Cdk1 (Saccharomyces cerevisiae, UniProt P00546+P30283) in the same assay as above. Settings: Table S2; purified protein substrate; relative values, not divided by [S].
T4 construct: We purified the four cyclin-Cdk1 complexes from yeast; made in house; host or cells: S. cerevisiae strain DOM0076 (gal-CLB5-TAP, sic1 deleted); Cks1 from bacteria
Type: biochemical

T4 sequence (P00546 2-298 limits assumed): as above
T4 sequence (P30283 whole entry partner): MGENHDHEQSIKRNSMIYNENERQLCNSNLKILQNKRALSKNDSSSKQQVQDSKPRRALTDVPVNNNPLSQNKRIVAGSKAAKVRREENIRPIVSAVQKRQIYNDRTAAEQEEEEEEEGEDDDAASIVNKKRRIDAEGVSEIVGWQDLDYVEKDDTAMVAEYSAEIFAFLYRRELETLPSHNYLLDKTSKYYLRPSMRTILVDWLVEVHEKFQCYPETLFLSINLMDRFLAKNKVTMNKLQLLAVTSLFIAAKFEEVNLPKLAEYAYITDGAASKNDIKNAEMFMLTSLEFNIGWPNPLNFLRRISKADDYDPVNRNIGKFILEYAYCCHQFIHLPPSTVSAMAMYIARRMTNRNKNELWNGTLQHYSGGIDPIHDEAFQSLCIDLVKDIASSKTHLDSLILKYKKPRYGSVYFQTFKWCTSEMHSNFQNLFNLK
T4 sequence (P20486 whole entry partner): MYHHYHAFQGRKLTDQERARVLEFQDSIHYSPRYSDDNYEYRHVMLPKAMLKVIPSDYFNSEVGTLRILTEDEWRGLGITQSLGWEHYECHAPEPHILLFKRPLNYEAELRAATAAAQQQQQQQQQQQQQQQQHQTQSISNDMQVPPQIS

Molecule	kcat/KM, Clb5 [relative units]
B1	0.025
B2	2.898
B3	0.019
B4	23.02
B5	0.115

Each molecule was assayed against T5, Clb2-Cdk1 (Saccharomyces cerevisiae, UniProt P00546+P24869) in the same assay as above. Settings: Table S2; purified protein substrate; relative values, not divided by [S].
T5 construct: We purified the four cyclin-Cdk1 complexes from yeast; made in house; host or cells: S. cerevisiae strain DOM0077 (gal-CLB2-TAP, sic1 deleted); Cks1 from bacteria
Type: biochemical

T5 sequence (P00546 2-298 limits assumed): as the sequence (P00546 2-298 limits assumed) above
T5 sequence (P24869 2-491 partner limits assumed): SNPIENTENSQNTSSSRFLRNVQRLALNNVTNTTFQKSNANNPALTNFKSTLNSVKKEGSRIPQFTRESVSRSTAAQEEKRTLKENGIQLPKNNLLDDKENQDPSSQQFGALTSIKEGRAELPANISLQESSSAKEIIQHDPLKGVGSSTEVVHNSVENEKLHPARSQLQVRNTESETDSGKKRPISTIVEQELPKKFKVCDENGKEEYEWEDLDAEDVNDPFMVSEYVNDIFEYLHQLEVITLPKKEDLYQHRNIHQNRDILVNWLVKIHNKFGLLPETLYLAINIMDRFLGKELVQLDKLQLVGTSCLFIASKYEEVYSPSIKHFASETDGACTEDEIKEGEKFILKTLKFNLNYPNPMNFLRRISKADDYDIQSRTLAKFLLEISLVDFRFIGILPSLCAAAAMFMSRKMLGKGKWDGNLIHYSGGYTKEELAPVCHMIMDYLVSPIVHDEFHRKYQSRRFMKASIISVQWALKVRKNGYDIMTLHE
T5 sequence (P20486 whole entry partner): as the sequence (P20486 whole entry partner) above

Molecule	kcat/KM, Clb2 [relative units]
B1	0.035
B2	0.078
B3	0.074
B4	12.43
B5	0.029

What follows are molecules tested against T6, Clb3-Cdk1 (Saccharomyces cerevisiae, UniProt P00546+P24870) in the same assay as above. Settings: Table S2; purified protein substrate; relative values, not divided by [S].
T6 construct: We purified the four cyclin-Cdk1 complexes from yeast; made in house; host or cells: S. cerevisiae strain DOM0957 (gal-CLB3-TAP, sic1 deleted); Cks1 from bacteria
Type: biochemical

T6 sequence (P00546 2-298 limits assumed): as the sequence (P00546 2-298 limits assumed) above
T6 sequence (P24870 whole entry partner): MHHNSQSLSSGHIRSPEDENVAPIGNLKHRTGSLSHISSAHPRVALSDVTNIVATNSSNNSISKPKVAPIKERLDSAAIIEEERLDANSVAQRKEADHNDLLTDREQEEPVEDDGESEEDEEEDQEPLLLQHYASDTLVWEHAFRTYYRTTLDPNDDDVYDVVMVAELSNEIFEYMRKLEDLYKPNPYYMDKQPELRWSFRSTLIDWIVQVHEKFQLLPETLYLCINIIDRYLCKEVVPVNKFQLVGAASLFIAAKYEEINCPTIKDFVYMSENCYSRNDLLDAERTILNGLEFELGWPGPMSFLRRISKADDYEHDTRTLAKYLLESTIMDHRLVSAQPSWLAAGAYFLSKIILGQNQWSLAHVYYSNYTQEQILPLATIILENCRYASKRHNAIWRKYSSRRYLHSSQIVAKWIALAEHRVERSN
T6 sequence (P20486 whole entry partner): as the sequence (P20486 whole entry partner) above

Molecule	kcat/KM, Clb3 [relative units]
B1	0.024
B2	2.268
B3	0.031
B4	10.96
B5	0.031

Each molecule was assayed against T7, Cln2-Cdk1 (Saccharomyces cerevisiae, UniProt P00546+P20438) in the same assay as above. Settings: Table S2; purified protein substrate; relative values, not divided by [S].
T7 construct: We purified the four cyclin-Cdk1 complexes from yeast; made in house; host or cells: S. cerevisiae strain DMY305 (galactose-induced); Cks1 from bacteria
Type: biochemical

T7 sequence (P00546 2-298 limits assumed): as the sequence (P00546 2-298 limits assumed) above
T7 sequence (P20438 whole entry partner): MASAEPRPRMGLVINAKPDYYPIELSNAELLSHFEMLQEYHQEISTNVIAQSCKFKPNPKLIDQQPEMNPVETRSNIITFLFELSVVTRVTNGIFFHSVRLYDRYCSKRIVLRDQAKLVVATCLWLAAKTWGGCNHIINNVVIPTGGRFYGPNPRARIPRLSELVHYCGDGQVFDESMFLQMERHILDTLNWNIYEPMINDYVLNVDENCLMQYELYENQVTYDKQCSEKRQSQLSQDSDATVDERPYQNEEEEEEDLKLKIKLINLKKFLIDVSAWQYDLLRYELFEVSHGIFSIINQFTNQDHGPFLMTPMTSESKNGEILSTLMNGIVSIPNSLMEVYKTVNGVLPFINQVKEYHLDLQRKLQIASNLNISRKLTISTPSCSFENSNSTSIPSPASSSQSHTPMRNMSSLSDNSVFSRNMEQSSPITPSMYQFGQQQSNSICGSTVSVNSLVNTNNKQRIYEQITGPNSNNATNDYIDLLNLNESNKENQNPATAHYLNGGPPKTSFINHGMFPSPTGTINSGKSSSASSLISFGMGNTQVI
T7 sequence (P20486 whole entry partner): as the sequence (P20486 whole entry partner) above

Molecule	kcat/KM, Cln2 [relative units]
B1	0.016
B2	0.084
B3	0.084
B4	1.800
B5	0.042
